Results: US20140308285A1 (Amgen, published 2014)

Key:
[1] = biological target: T1, folate receptor 1 (FOLR1) on tumor cell lines (Cal-51, T47D) (human, UniProt P15328 25-234); test: cell-based or functional assay
[2] = biological target: T1, folate receptor 1 (FOLR1) on tumor cell …; test: cell-based or functional assay; remark: listed apart in the source

T1 sequence (P15328 25-234, stated change not applied): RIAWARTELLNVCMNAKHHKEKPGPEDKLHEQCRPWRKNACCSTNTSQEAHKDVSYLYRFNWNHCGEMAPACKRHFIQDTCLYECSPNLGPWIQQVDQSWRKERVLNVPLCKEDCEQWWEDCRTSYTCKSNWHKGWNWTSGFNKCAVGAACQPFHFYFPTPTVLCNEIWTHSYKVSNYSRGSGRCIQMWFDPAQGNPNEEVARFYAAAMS

B1: P136795.3 (bispecific antibody)
chain 1: EVQLVESGGGLVQPGGSLKLSCAASGFTFNSYAMNWVRQAPGKGLEWVARIRSKYNNYATYYADSVKGRFTISRDDSKNTAYLQMNNLKTEDTAVYYCVRHGNFGNSYVSWWAYWGQGTLVTVSSGGGGSGGGGSQSVLTQPPSVSEAPRQRVTISCSGSSSNIGNNAVNWYQQLPGKAPKLLIYYDDMLSSGVSDRFSGSKSGTSASLAISGLQSEDEADYYCAAWDDSLNGVVFGGGTKLTVLASTKGPSVFPLAPCSRSTSESTAALGCLVKDYFPEPVTVSWNSGALTSGVHTFPAVLQSSGLYSLSSVVTVPSSNFGTQTYTCNVDHKPSNTKVDKTVGGGGSAAAEPKSSDKTHTCPPCPAPEAAGGPSVFLFPPKPKDTLMISRTPEVTCVVVDVSHEDPEVKFNWYVDGVEVHNAKTKPREEQYNSTYRVVSVLTVLHQDWLNGKEYKCKVSNKALPAPIEKTISKAKGQPREPQVYTLPPSREEMTKNQVSLTCLVKGFYPSDIAVEWESNGQPENNYDTTPPVLDSDGSFFLYSDLTVDKSRWQQGNVFSCSVMHEALHNHYTQKSLSLSPGK
chain 2: not shown
EC50 of specific lysis, Cal-51 cells (printed Cal-61) with human T cells [1]: 1.21 pM
EC50 of specific lysis, T47D cells with human T cells [1]: 1.26 pM
EC50 (pM) for cytokine release, IFN-γ, in presence of T47D cells [2]: 27.1 pM
EC50 (pM) for cytokine release, IL-2, in presence of T47D cells [2]: 20.3 pM
EC50 (pM) for cytokine release, IL-10, in presence of T47D cells [2]: 28.3 pM
EC50 (pM) for cytokine release, IL-13, in presence of T47D cells [2]: 27.8 pM
EC50 (pM) for cytokine release, TNF-α, in presence of T47D cells [2]: 12.5 pM
